We go through one molecule from patent publication US20200115460A1 (TEIJIN PHARMA, published 2020).

For assay [1], the target named is T1, recombinant human IGF-I receptor His tag (305-GR-050, R&D SYSTEMS) (human, UniProt P08069 31-932, limits assumed).
T1 construct: Bought protein, captured on an anti-His antibody chip; also called IGF-IR-His; not shown: His tag
Put plainly: SPR, Biacore T200. How it is done:
The sensor chip CM3 immobilized with the anti-His monoclonal antibody was set to Biacore T200, the reaction temperature was set to 36° C., and a running buffer (HBS-EP+, BR-1006-69, GE) was fed at a flow rate 30 μL/min. The amount of the binding ligand was set to about 100 RU, and IGF-IR-His (0.5 to 2×10⁻⁸ mol/L) was added to the sensor chip to be captured by the anti-His monoclonal antibody. Ctrl IgG2a (10 nmol/L) was allowed to react for 1 minute, and HBS-EP+ was fed at a flow rate of 30 μL/min for at least 10 minutes. The analyte and HBS-EP+ were added to flow cells (1 and 2) and flow cells (3 and 4), respectively.
The reaction conditions were set to a binding time of 600 seconds and a dissociation time of 600 seconds. After completion of the reaction, washing was performed with regeneration buffer 1 (0.2% SDS), regeneration buffer 2 (100 mmol/L Tris-HCl (pH 8.5), 1 mol/L NaCl, 15 mmol/L MgCl₂), and regeneration buffer 3 (10 mmol/L glycine-HCl (pH 1.5)) for 1 minute each at a flow rate of 30 μL/min.

Assay [2] concerns the target T2, Substitution 1 of the CR domain (human IGF-I receptor D245N/A247T, FLAG tag) (human, UniProt P08069 31-1367).
T2 construct: Expressed on transfected HEK 293T cells
Put plainly: Cell ELISA, 1 nM antibody, fixed HEK 293T cells. How it is done: (§1) On the next day, each plasmid DNA was transfected into the cells by lipofection. On the following day, the HEK 293T cells were detached with 0.25% trypsin/EDTA and were suspended in a broth. The HEK 293T cells were added to a 96-well plate (coated with poly-D-lysine) at a concentration of 0.8×10⁵ cells/well and were incubated at 37° C. under conditions of 5% CO₂ overnight. The medium was removed from the 96-well plate, and the cells were immobilized with a 10% buffered formalin (Mildform® 10 NM, Wako). The 10% buffered formalin was replaced with a blocking buffer (3% BSA/PBS/sodium azide), and the plate was used in ELISA.
(§2) After washing with a washing liquid twice, anti-mouse-IgG antibody-HRP conjugate solutions (50 μL) adjusted to predetermined concentrations with 0.1% skimmed milk/3% BSA/PBS were added to respective wells and were subjected to reaction at room temperature for about 1 hour. After washing with a washing liquid twice, 100 μL of a substrate (TMB) was added to each well to start the reaction. After about 30 minutes, 100 μL of 0.5 M sulfuric acid was added to each well to stop the reaction, and the absorbances at 450 nm was measured. The value of the absorbance at 450 nm was evaluated as the avidity.

The target in assay [3] is T3, Substitution 2 of the CR domain (human IGF-I receptor E294D, FLAG tag) (human, UniProt P08069 31-1367).
T3 construct: Expressed on transfected HEK 293T cells
The assay can be described thus: Cell ELISA, 1 nM antibody, fixed HEK 293T cells. The procedure: as §1, §2

Assay [4] deals with T4, Substitution 3 of the CR domain (human IGF-I receptor G315S/S316T, FLAG tag) (human, UniProt P08069 31-1367).
T4 construct: Expressed on transfected HEK 293T cells
Put plainly: Cell ELISA, 1 nM antibody, fixed HEK 293T cells. How it is done:
as §1, §2

In assay [5] the target is T5, wild-type human IGF-I receptor (FLAG tag, Example 7) (human, UniProt P08069 31-1367).
T5 construct: Expressed on transfected HEK 293T cells
Put plainly: Cell ELISA, 1 nM antibody, fixed HEK 293T cells. The procedure: as §1, §2

Assay [6] deals with T6, wild-type rat IGF-I receptor (FLAG tag, Example 7) (rat, UniProt P24062 31-1370).
T6 construct: Expressed on transfected HEK 293T cells
The assay can be described thus: Cell ELISA, 1 nM antibody, fixed HEK 293T cells. How it is done:
as §1, §2

A further assay deals with T7, rat IGF-I receptor (rat, UniProt P24062 31-1370).
T7 construct: Expressed on transfected P3U1 cells; also called NP_494694
The assay can be described thus: Cell ELISA on P3U1 cells expressing the receptor.

The next assay addresses T8, mouse IGF-I receptor (mouse, UniProt Q60751 31-1373).
T8 construct: Expressed on transfected P3U1 cells; also called NP_034643
Put plainly: Cell ELISA on P3U1 cells expressing the receptor.

Assay [7] deals with T6, wild-type rat IGF-I receptor (FLAG tag, …). The assay can be described thus: Cell ELISA on HEK 293T cells expressing the receptor. How it is done:
(§3) HEK 293T cells were seeded in a 10-cm dish coated with poly-D-lysine at 9×10⁶ cells/well. On the next day, each plasmid DNA was transfected into the cells by lipofection. On the following day, the HEK 293T cells were detached with 0.25% trypsin/EDTA and were suspended in a broth. The HEK 293T cells were added to a 96-well plate (coated with poly-D-lysine) at a concentration of 0.8×10⁵ cells/well and were incubated at 37° C. under conditions of 5% CO₂ overnight. The medium was removed from the 96-well plate, and the cells were immobilized with a 10% buffered formalin (Mildform® 10 NM, Wako). The 10% buffered formalin was replaced with a blocking buffer (3% BSA/PBS/sodium azide), and the plate was used in ELISA.
as §2

The target in assay [8] is T4, Substitution 3 of the CR domain (human …). The assay can be described thus: Cell ELISA on HEK 293T cells expressing the substitution. How it is done: as §3, §2
Assay [9] has as its target T9, human insulin receptor (human, UniProt P06213 28-1382).
T9 construct: whole, on cells; Expressed on transfected HEK 293T cells; also called INSR; hINSR
The assay can be described thus: Cell ELISA, fixed HEK 293T cells expressing the receptor. How it is done:
(§4) The HEK 293T cells after the lipofection were added to a 96-well plate (coated with poly-D-lysine) at a concentration of 0.8×10⁵ cells/well (about 180 μL/well) and were immobilized with 10% buffered formalin (Mildform® 10 NM, Wako), followed by blocking with phosphate buffer containing 3% BSA. The plate was used in ELISA.
(§5) In ELISA, antibody solutions (30 μL) adjusted to predetermined concentrations with 0.1% skimmed milk/3% BSA/PBS were added to respective wells and were subjected to reaction at room temperature for about 1 hour. After washing with a washing liquid (tris buffer containing Tween) twice, anti-mouse-IgG antibody-ALP conjugate solutions (30 μL) adjusted to predetermined concentrations with 0.1% skimmed milk/3% BSA/PBS were added to respective wells and were subjected to reaction at room temperature for about 1 hour. After washing with a washing liquid twice, 100 μL of a substrate (PNPP) was added to each well to start the reaction.

Assay [10] addresses T9, human insulin receptor. The assay can be described thus: Cell ELISA on HEK 293T cells expressing human insulin receptor. The procedure:
as §4, §5

T6 sequence (P24062 other isoform, or with tags, fused parts or gaps limits assumed): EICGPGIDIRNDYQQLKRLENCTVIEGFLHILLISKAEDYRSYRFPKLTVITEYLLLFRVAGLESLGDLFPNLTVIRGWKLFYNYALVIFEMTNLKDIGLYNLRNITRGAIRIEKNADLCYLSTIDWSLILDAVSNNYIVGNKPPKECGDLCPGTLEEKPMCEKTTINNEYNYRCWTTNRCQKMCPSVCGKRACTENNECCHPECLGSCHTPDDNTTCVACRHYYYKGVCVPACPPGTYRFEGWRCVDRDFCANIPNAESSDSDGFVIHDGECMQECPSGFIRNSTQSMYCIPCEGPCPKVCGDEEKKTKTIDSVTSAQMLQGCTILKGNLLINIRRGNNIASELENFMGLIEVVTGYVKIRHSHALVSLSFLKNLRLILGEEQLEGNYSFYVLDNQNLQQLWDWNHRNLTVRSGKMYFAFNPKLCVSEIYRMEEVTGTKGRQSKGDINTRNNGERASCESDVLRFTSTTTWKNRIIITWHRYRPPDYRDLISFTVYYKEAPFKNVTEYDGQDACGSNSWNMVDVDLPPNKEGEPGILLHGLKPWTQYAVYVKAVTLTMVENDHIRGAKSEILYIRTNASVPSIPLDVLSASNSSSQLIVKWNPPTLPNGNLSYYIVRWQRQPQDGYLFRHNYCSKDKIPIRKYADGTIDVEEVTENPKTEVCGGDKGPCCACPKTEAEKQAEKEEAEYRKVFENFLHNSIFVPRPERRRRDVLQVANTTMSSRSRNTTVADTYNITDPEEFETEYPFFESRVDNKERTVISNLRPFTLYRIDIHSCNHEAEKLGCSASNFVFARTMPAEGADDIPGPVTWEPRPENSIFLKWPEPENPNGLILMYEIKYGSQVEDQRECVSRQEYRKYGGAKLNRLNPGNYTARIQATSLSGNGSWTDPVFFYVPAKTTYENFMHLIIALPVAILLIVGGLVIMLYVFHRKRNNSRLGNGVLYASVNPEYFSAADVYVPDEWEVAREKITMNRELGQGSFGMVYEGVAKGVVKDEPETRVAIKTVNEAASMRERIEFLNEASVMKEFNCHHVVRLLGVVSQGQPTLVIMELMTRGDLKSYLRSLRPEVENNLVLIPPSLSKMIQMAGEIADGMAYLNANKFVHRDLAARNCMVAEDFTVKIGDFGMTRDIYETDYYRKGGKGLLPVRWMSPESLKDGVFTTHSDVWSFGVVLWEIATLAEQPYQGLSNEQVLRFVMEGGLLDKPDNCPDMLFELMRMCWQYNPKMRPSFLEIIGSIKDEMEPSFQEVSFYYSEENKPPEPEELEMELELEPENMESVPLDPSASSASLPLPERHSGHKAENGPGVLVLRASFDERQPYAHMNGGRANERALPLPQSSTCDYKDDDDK
T7 sequence (P24062 31-1370 limits assumed): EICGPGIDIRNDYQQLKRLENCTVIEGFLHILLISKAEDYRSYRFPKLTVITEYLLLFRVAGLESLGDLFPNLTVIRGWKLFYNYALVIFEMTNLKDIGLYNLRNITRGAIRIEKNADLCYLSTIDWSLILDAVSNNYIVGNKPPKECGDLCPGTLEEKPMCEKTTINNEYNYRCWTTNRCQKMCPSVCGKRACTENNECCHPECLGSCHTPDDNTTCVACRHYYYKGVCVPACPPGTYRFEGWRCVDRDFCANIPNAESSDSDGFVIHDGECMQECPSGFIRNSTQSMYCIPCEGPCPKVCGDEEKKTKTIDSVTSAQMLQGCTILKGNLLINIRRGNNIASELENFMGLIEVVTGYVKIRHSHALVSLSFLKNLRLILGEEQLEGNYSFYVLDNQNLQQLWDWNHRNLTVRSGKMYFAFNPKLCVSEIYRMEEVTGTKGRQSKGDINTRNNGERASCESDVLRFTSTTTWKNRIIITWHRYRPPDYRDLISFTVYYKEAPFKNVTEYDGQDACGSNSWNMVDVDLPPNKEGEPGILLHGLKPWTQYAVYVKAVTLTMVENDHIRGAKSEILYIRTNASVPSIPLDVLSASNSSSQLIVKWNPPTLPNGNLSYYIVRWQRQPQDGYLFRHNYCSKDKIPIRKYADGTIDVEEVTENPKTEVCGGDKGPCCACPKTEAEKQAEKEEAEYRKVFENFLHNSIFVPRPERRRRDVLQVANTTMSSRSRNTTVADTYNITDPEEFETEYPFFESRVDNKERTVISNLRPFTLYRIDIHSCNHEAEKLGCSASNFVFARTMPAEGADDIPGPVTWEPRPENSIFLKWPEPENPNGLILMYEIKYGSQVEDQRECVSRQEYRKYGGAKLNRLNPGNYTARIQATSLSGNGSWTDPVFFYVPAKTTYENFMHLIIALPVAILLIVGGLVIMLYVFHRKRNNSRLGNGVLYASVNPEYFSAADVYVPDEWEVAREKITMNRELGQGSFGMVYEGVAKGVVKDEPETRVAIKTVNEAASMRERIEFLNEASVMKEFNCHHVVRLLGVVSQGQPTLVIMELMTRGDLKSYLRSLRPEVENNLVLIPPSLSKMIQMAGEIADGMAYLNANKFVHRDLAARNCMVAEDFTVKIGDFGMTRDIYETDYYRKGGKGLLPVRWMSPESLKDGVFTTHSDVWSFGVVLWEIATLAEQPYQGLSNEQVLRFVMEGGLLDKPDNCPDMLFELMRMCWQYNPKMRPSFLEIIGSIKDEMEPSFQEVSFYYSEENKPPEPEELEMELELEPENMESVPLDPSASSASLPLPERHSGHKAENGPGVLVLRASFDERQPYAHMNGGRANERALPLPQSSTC
T8 sequence (Q60751 other isoform, or with tags, fused parts or gaps limits assumed): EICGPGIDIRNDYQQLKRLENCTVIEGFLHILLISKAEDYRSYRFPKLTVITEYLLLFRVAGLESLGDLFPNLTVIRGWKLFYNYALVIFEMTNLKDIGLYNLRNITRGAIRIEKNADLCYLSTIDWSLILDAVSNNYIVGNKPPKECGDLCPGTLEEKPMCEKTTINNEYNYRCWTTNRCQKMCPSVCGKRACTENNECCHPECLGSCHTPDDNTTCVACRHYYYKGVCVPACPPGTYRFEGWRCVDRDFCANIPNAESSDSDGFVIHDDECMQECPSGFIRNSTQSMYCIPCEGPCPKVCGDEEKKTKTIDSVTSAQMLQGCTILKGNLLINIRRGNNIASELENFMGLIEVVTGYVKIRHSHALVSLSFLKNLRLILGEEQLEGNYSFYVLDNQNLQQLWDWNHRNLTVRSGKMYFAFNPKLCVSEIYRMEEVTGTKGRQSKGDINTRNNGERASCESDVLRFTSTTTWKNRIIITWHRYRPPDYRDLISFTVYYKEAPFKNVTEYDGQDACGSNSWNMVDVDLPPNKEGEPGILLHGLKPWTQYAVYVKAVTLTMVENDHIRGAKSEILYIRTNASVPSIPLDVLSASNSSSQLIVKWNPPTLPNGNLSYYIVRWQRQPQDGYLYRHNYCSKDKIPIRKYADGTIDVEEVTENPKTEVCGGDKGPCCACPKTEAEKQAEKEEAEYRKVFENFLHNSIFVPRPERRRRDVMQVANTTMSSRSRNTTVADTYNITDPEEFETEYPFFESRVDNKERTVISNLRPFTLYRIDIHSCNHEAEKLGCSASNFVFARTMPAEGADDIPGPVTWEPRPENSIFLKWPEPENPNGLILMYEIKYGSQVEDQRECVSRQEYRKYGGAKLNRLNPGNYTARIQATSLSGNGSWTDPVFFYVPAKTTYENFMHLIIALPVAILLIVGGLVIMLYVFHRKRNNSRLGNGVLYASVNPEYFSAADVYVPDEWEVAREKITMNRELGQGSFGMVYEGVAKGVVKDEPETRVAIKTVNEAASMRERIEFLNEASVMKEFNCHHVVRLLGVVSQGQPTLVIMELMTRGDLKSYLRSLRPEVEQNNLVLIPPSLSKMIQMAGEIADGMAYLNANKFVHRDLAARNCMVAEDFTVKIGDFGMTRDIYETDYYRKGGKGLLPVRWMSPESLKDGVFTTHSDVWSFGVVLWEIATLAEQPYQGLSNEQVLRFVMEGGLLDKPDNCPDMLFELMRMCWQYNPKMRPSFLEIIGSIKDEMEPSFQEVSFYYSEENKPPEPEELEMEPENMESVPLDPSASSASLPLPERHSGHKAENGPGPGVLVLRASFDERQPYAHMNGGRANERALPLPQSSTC

B1: IGF11-16 (antibody, mouse IgG1, kappa, V domains shown)
VH: QIQLQQPGAELVKPGASVKLSCKAPGYTFTSYWMHWVKQRPGQGLEWIGETNPSNSVTNYNEKFKSKATLTVDKSSSTAYMQLSSLTSEDSAVYYCTIGRGRGFAYWGQGTLVTVSA
VL: DIQMNQSPSSLSASLGDTITITCRASQNINFWLSWCQQKPGNIPKLLIYKASNLHTGVPSRFSGSGSGTDFTLTISSLQPEDIATYYCLQGQSYPYTFGGGTKLEIKR
notes: no cleavage site is stated; also called IGF-I receptor agonist antibody; IGF11-16 antibody
On to B1, for which, in assay [1], the “KD relative to that of IGF-I” value is < 0.02 fold of IGF-I. Further, in assay [1], the “ka relative to that of IGF-I” value is ~0.2 fold of IGF-I. For the same molecule, the “kd relative to that of IGF-I” value in assay [1] was < 0.001 fold of IGF-I. For the same molecule, the “absorbance at 450 nm” value in assay [2] is at least 2 absorbance at 450 nm; in [3] it was at least 2 absorbance at 450 nm; in [4] it was about 1 absorbance at 450 nm; in assay [5], at least 2 absorbance at 450 nm; in assay [6] it was about 1 absorbance at 450 nm. Also, the binding result with rat IGF-I receptor was “no binding (tested: 10 nM)”; with mouse IGF-I receptor it was “no binding (tested: 10 nM)”; in assay [7], “no binding (tested: 1 nM)”; in assay [8], “no binding (tested: 1 nM)”; in the assay with human insulin receptor [10] it was “no binding (tested: 0.5 nM and 5 nM; 1.5-fold of Mock cells)”. The “avidity (absorbance difference 405-550 nm, Mock cells = 1) at 0.5 nM” value with human insulin receptor [9] is 1.1 fold of Mock cells. Further, the “avidity (absorbance difference 405-550 nm, Mock cells = 1) at 5 nM” value in the assay with human insulin receptor [9] was 1.4 fold of Mock cells.
